Literature values, collected in PMC11817637.

Legend:
[1] = biological target: RyR1 (Oryctolagus cuniculus) (UniProt P11716)
[2] = biological target: RyR1 (UniProt P21817)
Chain of UniProt P21817 (P21817 whole entry): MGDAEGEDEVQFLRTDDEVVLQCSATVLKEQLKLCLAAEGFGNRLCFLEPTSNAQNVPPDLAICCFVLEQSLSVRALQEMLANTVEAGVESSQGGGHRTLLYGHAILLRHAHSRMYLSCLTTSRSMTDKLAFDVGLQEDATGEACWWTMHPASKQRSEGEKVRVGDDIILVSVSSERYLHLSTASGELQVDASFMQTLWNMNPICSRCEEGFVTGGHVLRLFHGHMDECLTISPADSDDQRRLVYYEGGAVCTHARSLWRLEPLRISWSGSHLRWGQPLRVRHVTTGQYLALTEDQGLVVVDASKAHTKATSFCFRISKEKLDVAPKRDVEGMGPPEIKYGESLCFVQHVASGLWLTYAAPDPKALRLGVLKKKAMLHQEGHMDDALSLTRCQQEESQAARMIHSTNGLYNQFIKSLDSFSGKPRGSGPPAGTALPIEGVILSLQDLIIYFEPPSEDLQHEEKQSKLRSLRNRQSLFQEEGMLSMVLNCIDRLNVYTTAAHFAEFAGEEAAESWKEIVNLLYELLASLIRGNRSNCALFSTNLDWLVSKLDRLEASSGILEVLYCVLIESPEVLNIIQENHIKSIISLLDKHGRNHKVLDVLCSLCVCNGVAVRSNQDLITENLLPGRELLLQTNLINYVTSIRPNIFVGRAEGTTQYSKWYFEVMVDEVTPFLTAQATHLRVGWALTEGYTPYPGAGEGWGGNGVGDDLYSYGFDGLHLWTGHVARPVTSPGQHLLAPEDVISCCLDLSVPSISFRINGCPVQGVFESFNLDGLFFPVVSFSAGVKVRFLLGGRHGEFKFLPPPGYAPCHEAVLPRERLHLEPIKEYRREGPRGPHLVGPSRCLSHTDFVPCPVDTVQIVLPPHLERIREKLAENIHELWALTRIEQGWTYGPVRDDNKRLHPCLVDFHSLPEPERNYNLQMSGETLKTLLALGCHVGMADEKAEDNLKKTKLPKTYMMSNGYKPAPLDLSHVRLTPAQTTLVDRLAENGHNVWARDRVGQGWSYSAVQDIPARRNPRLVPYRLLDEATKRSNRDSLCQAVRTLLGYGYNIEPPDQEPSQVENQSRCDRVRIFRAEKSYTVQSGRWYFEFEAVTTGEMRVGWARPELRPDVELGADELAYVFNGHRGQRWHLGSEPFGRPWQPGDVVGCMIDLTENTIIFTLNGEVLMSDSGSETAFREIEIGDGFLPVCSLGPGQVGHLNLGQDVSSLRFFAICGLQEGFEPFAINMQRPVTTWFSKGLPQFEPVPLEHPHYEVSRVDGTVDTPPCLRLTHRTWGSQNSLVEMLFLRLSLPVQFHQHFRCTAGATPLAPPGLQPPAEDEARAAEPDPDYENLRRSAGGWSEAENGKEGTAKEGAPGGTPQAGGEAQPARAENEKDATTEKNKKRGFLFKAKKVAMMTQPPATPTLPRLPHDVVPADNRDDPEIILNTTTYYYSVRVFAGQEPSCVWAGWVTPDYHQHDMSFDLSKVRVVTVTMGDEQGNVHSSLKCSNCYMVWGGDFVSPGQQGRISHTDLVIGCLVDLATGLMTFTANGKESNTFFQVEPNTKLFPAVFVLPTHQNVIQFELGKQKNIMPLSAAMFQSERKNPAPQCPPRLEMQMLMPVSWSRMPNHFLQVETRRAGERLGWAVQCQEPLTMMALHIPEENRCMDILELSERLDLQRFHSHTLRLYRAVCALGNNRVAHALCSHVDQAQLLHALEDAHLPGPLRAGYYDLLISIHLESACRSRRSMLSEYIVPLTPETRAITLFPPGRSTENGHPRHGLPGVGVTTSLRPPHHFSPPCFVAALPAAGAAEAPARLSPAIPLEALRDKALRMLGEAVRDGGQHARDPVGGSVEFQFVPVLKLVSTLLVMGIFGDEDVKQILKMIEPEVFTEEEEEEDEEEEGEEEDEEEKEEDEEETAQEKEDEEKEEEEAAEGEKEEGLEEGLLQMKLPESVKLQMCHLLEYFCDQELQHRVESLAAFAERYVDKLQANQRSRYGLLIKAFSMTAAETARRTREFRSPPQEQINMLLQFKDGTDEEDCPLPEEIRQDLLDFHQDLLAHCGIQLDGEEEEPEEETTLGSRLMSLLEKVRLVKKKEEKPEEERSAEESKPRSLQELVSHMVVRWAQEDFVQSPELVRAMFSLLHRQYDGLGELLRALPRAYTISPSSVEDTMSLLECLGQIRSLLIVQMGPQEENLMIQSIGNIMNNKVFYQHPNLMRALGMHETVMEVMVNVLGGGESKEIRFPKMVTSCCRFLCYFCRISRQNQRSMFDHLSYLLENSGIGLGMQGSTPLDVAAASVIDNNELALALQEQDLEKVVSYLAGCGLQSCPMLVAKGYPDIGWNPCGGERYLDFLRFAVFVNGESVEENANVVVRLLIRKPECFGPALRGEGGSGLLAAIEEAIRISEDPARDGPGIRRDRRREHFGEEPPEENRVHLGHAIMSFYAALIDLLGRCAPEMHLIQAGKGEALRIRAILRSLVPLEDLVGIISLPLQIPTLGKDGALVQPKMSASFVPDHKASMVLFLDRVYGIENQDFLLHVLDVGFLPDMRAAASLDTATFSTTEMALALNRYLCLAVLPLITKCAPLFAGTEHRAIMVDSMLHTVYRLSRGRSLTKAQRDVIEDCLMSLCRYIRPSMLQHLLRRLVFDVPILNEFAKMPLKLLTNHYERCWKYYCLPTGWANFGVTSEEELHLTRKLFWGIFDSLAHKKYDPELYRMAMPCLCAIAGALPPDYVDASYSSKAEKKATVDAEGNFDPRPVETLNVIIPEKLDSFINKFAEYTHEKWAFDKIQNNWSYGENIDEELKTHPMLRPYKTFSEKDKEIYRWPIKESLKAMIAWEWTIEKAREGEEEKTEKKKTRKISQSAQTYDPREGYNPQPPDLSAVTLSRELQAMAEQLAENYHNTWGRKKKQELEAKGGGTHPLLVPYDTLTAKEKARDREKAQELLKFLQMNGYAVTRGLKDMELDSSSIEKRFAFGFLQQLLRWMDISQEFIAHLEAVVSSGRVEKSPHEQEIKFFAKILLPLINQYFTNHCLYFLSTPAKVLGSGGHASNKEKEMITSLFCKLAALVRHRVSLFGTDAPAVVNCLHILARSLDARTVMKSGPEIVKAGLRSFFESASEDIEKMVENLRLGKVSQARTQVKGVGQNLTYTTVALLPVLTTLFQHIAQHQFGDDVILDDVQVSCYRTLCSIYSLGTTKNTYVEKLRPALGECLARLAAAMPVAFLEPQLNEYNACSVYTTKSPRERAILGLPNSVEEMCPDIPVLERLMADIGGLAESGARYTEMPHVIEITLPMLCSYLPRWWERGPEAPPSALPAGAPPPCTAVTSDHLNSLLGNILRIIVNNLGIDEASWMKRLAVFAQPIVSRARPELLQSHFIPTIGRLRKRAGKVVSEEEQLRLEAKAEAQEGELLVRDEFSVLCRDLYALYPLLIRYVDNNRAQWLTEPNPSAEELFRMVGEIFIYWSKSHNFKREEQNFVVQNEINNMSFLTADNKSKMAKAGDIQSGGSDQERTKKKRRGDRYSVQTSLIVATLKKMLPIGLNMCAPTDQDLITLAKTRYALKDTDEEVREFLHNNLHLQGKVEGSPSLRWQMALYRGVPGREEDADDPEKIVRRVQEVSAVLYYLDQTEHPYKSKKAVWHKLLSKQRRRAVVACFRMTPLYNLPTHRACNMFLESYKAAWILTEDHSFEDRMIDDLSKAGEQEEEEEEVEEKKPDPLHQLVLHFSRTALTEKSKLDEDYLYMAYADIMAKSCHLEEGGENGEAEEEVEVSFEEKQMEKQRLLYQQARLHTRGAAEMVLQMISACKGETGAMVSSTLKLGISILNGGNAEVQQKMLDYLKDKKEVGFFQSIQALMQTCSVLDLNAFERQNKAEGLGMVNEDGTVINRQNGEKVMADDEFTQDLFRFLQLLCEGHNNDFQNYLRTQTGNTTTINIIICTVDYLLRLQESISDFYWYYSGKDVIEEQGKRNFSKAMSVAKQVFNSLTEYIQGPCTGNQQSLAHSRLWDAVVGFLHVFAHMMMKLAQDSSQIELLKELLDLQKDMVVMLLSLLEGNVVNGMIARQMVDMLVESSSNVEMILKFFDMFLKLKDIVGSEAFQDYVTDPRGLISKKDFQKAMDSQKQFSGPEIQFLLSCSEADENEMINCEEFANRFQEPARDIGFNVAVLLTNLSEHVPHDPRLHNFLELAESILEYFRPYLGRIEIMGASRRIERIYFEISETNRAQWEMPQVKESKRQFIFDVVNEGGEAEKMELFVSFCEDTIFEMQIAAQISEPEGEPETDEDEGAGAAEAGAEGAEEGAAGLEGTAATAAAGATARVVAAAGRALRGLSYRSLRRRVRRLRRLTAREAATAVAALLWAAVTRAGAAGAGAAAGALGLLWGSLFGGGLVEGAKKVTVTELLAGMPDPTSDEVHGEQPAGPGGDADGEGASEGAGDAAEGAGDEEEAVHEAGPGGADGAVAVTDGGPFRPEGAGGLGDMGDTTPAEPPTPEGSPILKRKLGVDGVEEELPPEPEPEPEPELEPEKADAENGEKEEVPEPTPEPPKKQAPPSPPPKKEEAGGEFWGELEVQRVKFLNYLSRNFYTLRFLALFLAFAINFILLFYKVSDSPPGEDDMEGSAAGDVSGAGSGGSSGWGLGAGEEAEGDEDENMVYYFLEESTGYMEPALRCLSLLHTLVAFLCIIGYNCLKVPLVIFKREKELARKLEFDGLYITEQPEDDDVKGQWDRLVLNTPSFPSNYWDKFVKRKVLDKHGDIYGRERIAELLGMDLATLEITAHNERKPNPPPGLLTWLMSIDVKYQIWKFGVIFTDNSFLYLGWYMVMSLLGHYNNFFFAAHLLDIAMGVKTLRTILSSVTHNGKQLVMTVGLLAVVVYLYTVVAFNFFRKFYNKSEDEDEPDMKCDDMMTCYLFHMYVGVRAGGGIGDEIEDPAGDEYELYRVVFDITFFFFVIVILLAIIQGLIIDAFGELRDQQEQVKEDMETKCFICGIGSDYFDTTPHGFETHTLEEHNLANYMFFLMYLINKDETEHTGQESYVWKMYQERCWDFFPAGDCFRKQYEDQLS

| Substance | Kd [1] [nM] | Kd [2] [nM] |
| --- | --- | --- |
| FKBP12 (from UniProt P62943) | 2.6 |  |
| FKBP12 (from UniProt P62942) |  | 100 |
